The values that follow are results of earlier work, collected in paper PMC10991417.

This data set has as its target Vasa CTD (Drosophila melanogaster) (UniProt P09052).
Chain of UniProt P09052 (P09052 463-623): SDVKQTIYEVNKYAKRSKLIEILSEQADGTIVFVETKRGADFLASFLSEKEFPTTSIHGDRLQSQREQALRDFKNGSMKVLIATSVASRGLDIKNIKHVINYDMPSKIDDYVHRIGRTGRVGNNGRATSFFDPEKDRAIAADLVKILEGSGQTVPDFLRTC

Regarding Oskar eLOTUS (from UniProt P25158), the Kd was 10 µM.
